From patent US12228567B2, “Colorimetric sensor kit for screening therapeutic agent for neurodegenerative disease, including amyloid shelled-gold nanoparticle, and method for screening therapeutic agent for neurodegenerative disease” (Korea University Research and Business Foundation, priority 2019, dated 2025)

Experiments:
[1] = target: Aβ(1-40) (Homo sapiens, UniProt P05067); assay: Degradation activity of MMP-9 for the amyloid-gold nanoparticle, Aβ(1-40); format: biochemical; details: ASGN made with Aβ(1-40)
From the text: (§1) For investigation of the reactivity of the Amyloid Shelled-Gold Nanoparticle (ASGN), the reactivity of the amyloid-gold nanoparticle with amyloid-degrading proteases (protease XIV and matrix metallopeptidase 9 (MMP-9)) was investigated. As a result, it was confirmed that the composite of the present disclosure can be used not only for drug screening but also for investigation of the activity of an amyloid-degrading enzyme.
(§2) Therefore, MMP-9 degrades and removes Aβ(1-42) in the Golgi apparatus and the cytoplasm in the neurons of the brain.

[2] = target: T1, Aβ(1-42) (Homo sapiens, UniProt P05067); assay: Degradation activity of MMP-9 for the amyloid-gold nanoparticle, Aβ(1-42); format: biochemical; details: ASGN made with Aβ(1-42)
T1 construct: can degrade Aβ(1-42)
From the text: as §1, §2

T1 sequence (P05067 672-713 limits assumed): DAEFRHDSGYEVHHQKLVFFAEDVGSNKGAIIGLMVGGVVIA
Aβ(1-40), sequence (P05067 672-711 limits assumed): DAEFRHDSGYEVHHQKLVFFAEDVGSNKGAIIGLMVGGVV

## matrix metallopeptidase 9 [MMP-9]
[1]
  degradation of Aβ(1-40) on the amyloid-gold nanoparticle: cannot degrade
[2]
  degradation of Aβ(1-42) on the amyloid-gold nanoparticle: specifically degrades Aβ(1-42) only
